From US20100190699A1 (INDIANA UNIVERSITY RESEARCH AND TECHNOLOGY, published 2010)

Legend:
Experiment in all cases: cell-based or functional assay
[1] = molecular target: T1, glucagon receptor (UniProt P47871 26-477, limits assumed)
[2] = molecular target: GLP-1 receptor (UniProt P43220 24-463, limits assumed)
[3] = molecular target: T1, glucagon receptor; remark: listed apart in the source

T1 sequence (P47871 26-477 limits assumed): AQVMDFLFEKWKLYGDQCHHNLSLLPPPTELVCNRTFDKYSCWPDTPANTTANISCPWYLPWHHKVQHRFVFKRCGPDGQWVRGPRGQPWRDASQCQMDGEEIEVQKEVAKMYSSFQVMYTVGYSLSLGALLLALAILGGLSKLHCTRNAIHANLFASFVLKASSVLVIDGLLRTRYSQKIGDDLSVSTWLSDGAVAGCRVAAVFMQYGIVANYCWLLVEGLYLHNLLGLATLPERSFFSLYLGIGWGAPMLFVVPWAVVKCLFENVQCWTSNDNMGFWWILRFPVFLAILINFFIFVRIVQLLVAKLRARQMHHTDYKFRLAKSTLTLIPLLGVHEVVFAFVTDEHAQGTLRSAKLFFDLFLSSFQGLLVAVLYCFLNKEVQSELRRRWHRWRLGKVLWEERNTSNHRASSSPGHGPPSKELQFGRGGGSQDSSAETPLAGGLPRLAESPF

Binder: HSQGTFTSDYSKYLDSRRAQDFVQWLMDTE [glucagon analog D28, E30]
- Observed EC50 (cAMP induction), Test 3 [1]: 0.05 nM

Binder: HSQGTFTSDYSKYLDSRRAQDFVQWLMNKK [glucagon analog K29, K30]
- Observed EC50 (cAMP induction), Test 1 [1]: 0.89 nM

Binder: HSQGTFTSDYSKYLDSRRAQDFVQWLMNTE [glucagon analog E30]
- Observed EC50 (cAMP induction), Test 2 [1]: 0.04 nM

Binder: HSQGTFTSDYSRYLDSRRAQDFVQWLMNK [Glucagon R12 K29]
- cAMP Induction, EC50 (luciferase reporter) [2]: 0.41 nM
- cAMP Induction, EC50 (luciferase reporter) [3]: 0.81 nM

Binder: HSQGTFTSDYSKYLDSRRAQDFVQWLMDE [glucagon analog D28, E29]
- Observed EC50 (cAMP induction), Test 3 [1]: 0.03 nM

Binder: HSQGTFTSDYSKYLESRRAQDFVQWLMDT [glucagon analog D28, E15]
- Observed EC50 (cAMP induction), Test 3 [1]: 0.15 nM

Binder: HSQGTFTSDYSKYLDSRRAQDFVQWLMNTKK [glucagon analog K30, K31]
- Observed EC50 (cAMP induction), Test 2 [1]: 0.12 nM
